Measured values: the DeepSol protein solubility set

Test: soluble on expression in E. coli; label from the status in PepcDB or PDB records

| Sequence | soluble on expression in E. coli |
| --- | --- |
| MSLVTNKLGRDIPQPYADQYGVFEGELANIKQYDESSRRIKPVKPGDSKLLGSVREAIEKTGLTDGMTISFHHHFREGDFIMNMVLEEIAKMGIKNLSIAPSSIANVHEPLIDHIKNGVVTNITSSGLRDKVGAAISEGLMENPVVIRSHGGRARAIASGDIHIDVAFLGAPSSDAYGNVNGTKGKATCGSLGYAMIDAKYADQVVILTDNLVPYPNTPISIPQTDVDYVVTVDAIGDPQGIAKGATRFTKNPKELLIAEYAAKVITNSPYFKEGFSFQTGTGGASLAVTRFMREAMIKENIKASFALGGITNAMVELLEEELVEKILDVQDFDHPSAVSLGKHAEHYEIDANMYASPLSKGAVINQLDTCILSALEVDTNFNVNVMTGSDGVIRGASGGHCDTAFAAKMSLVISPLIRGRIPTFVDEVNTVITPGTSVDVIVTEVGIAINPNRQDLVDHFKSLNVPQFSIEELKEKAYAIVGTPERIQYGDKVVALIEYRDGSLMDVVYNVEGHHHHHH | soluble |
| MGSDKIHHHHHHMKDMTNLDNFEVGFDIPAKPGMDAAEIQTPCLVLDLDALERNVKKMGDYAKAHGMRHRVHGKMHKSVDVAKLQERLGGAVGVCCQKVSEAEVFVRGGIKDVLVSNQVRDPLKIDRLAQLPKLGSRIIVCVDDLANVADLSAAALRHGTELEVLIEIDCGAGRCGVGTTQDVVAIARAVDAAENLKFTGIQAYQGAMQHLDKYEDRKAKLDIAIEMVESAVQGLKAVGLDPELVSGGGTGSYYFEANSGVYNELQCGSYAFMDADYGRILDQNGQRIDKGEWENAMFILTQVMSHAKADKAIVDAGLKAQSVDSGLPFVHGRDDVEYIKCSDEHGVVADPNGVLKVGDKLRLVPGHCDPTANVHDWYVGVRGGKVECVWPVSARGKAY | not soluble |
| MRKMMPMNPKQLKKLMKQLDMRQLEGVKEVIIKMEDREIIIKEPIVTVIKAMGEKMYQIAGGSEEEKAIINISEEDIKLVMEQAGVDYETAKKALEETGGDLAEAILRLTDSGVE | soluble |
| MGSDKIHHHHHHMSKPSRWPLTADGIRFITPHVLVKRLQNHALAKGLFVTAMGYYPTASGHAMERKGHPDHILIYCTAGSGFLTMAGKTTEINSGDIFYLPAGSQHSYQASKELPWTLYWLHFDGTLANDFCQHINIVERKFTIGVQPRVIRVFDGISHLRHSSHNLAEFIQGGHQVQALLSYIALLVQQRKPSAINTFDTENLRAMMQEHIHSKLDLDSLAEAAKLSKYHFSKKFKQVTGESPISYFINMKMQRACYLLDSTPRSVKHVASELGYHDTYYFSRLFKKNIGMAPAIYRKAKL | not soluble |
| MQRCDWVSQDPLYIAYHDNEWGVPETDSRKLFEMICLEGQQAGLSWITVLKKRENYRACFHQFDPIRIAAMQEEDVERLLQNTGIIRHRGKIQAIISNARAWLAMEQNGESFADFVWSFVDGQPQITQAASLDKIPTSTPASDALAKALKKRGFKFVGTTICYSFMQACGLVNDHITGCFCHPG | soluble |
| MSLNIKKAAELSGIKTDNIRYYERIGLIPKITRTESGIRNFTEANIRTLKFVKHMRDAGVQVEPLTRYMALVNEGNPETKEERIEILKNQVEQLRTEIIEKQSALDYLTFKIENYDEVMLPNEINLNQSSKETIKEGHHHHHH | soluble |
| MNTGHHKVADTLIDFLHRQFPWVESKKIDFLSYCNELMEKMVSGAYLRWIRSHPASYHRVYKTFMYEESLRLEFVSFEPWLPYFEGKMKKMLEQERPDLIVCTHSFPSRILQQLKRKKVLAIPVVNVYTDFFMNSIWGKRFIDYHFVPHQEAKRELIVKHGIDERRIVVTGIPVHDTFMKAAALEHHHHHH | not soluble |
| MSGRHEACITPARRARQCLNRGNTMRHLPLFSLMLFPASVYAADSDGANLN | not soluble |
| MGSDKIHHHHHHMVNEQRVLDTFLELVQIDSESKEEAQICAHLKETFTALGCDVFEDDASSKTEHKGNNLIITLPATKDGVDKIYFTSHMDTVFPGQGIKPIIEDGYVKTDGTTILGADDKTGLASLIELVHVLNETNQPHGKIQFVITVGEESGLVGAMVLDPSKIDADYGFALDSDGKVGDIITAAPTQAKVNAKIYGKTAHAGVAPEKGISAITIAAKAIAKMPLGRIDEETTANIGRFSGGGPSTNIVCDYVEIFAEARSLVAPKMEAQTAKMKAAFEEVAAEFGGRAEVEVKVMYPGFKFEDGDQVVEVAKAAITQLGRTPRLLHSGGGSDANVIAGFGIPTVNLAVGYEDIHTTNEKMPIEELVKTAELCVTLVDYITNK | not soluble |
| SLARSPSVSAGTRPHAGEHTDTSPISSAVSAPSPSSLPLVFSPQPSVSSSSLPLSSSSLARVSSSPQPSASSASLPLSSSRQSGEALGSSGAASSESSRERQGKLRLRHPRQRKPFLLQVLHAEHRCHNPRELARVQRAGGSIFAGRVGGVLEPSRSVGDFDVKDAQPPGVLIATPEVCRVKVRKPTLVLLGTDGVWDMLCSADVLACVKKVTQFWQLLLAAFRERMEELQEEATEKQENEKERGEGDQVRESSGNGKG | soluble |
| MGSDKIHHHHHHMSEITTLQPSLLWKWFDQICAIPHPSHYEDTLANFIVNWAKEKHFFVERDEVGNVLIRKPATKGMENHTPVVLQAHLDMVPQANEGNPHDFTKDPIQPYIDGEWVKARGTTLGSDNGIGLASTLAVLESNDLAHPPLEVLLTMTEETGMDGAKGLRHNWLQSEILINTDTEEIGEIYIGCAGGINANFEIPVQYETNTFEHSAQITLKGLRGGHSGGDIHTGRANAIKVLARVLAKLSQNQPHFALSEIRGGSIRNAIPREAAAVLAFNGDVKTIESAVENLAVVLKEELAIAEPNFTLFVESAEKAPTVFTAQSTQTVINALNVLPNGVIRNSDVVKNVVESSLSVGVLKTEGNVVKSTILVRSLIESGKYYVTEMLSSLAILANAKVEFSAPYPGWQPVNDSTILDVTRKHYAEVLGEQPVVKVIHAGLECGLLKEHYPNIEMISVGPTIRNAHSPDEKVEIATVQTYWDLLTRVLADIPAK | not soluble |
| LAQPAMAMVGSRNATPQGLANADAFAEAASNAGFCIISGLAQGIDTAAHQGGLRGASSSMAIVGTGLDLVYPSRNHELAHKLANEGGLISEFPLGTPAISRNFPRRNRIISGMCHACLVVEATLYSGSLITARLALEQGREVMAIPGSIHSPLSKGCHALIKQGAKLVENIQDILDE | not soluble |
| MGSDKIHHHHHHMRTPTCDITTHERWFGAFTAPYLEEGPEHVGPVRLKIEHTHHVLSNARSIVDSEDFSPLVQRAALLAALYHDTGRFPQYRRWRTFSDPRSVNHALLGGRTLREAGALDDEPVEVRRLVLGAVVMHNRFRVPSGIPDDARTVTDVVRDADKLDIFRVMAPHLAPGAERDKVVVLHVEDAPGKWSPVIVADVLAGRVASYADLRYVNDFRLLLGTWVRDLRFPASRRMLAASGLVENILSALPASDDIARARTRILSDLADAARGRGGA | not soluble |
| MSEAQGQGKQSLVEMLKAMVQARASDIHLQAGAPPTVRIDGKLRPFGNRPLTPKEVEAIARALLTPEQLEELEYRKEMDFAYTIPGVARFRCNLLRQRGSFGLVMRVVSEVIPSFEALGLPREVMESLAAKERGLILVTGPTGSGKSTTLAALIDHINLHYAKNIITIEDPIEFLHKHKKSLVVQREVGLDTDSFYTGLKYALRQDPDVIMVGEMRDRETVEAALMAAQTGHLVLSTLHTLDAWRTINRIIDFFPLHEHRQVRVLLAESLLGILSQRLLPKADGQGRVLALEILIATPYVRELLKDEEKMPQIKEAMMEGSLYGMRTFDQHLVELYTEGLISLEDALSAATSPHEFRLLLTKATGQTY | soluble |
| GPGSMSLVESQKDMADLLPCNEECGGDYGRYSFGQTDTEVIVKVPLPSDTPTKMINVDVKVSSLTIGMKGQSPLISGDLYKPVKVDECTWCVEDKSVLVVTLVKTNAQYEEWWPCVTTNERQIDMKTFRPPSKHISELDDSARATIAKMMFDQRQKALNLPSSDELRLRELMQRGGTSN | soluble |
| MWEANELSSTNTFSHQAEMDWPSANWWQRYQDAQLNHLIEEALQHSPSLCMAMARLKGAQGFARQAGAIRSFDLGLAASATESKVSERYQSATPPDGWNDYGTLTLNFQYDFDFWGKNRAAVVAATSELAAAEAESVAARLMISTSIANAYAELARLYANQETVHAALQVRNKTVELLEKRYANGLETLGSVSQAKAVAASVEAELLGIQESIQLQKNALAALVGQGPDRAASIEEPHITLTSRYGLPSEAGVGLLGHRADITAARWRAEAAAQQVGIAQAQFYPDVTLSAFIGYQAFGLDHLFDSGNDAGAIGPAIYLPLFTGGRLEGQLTSAEARYQEAVAQYNGTLVQALHEIADVVTSSQALQARINKTEQAVQQAEQALHIATNRYQGGLATYLDVLVAEESLLNNQRALVNLQSRAFSLDLALIHALGGGFETTES | soluble |
| MGSDKIHHHHHHMAYGGRITLNVRIALVGEELEIRENVNIEIEEGIITHIGNGFSSEGITFKNGILIPGIVNAHVHSADFICQEMGYNMPISKVVGDPHSVKYECFAKNTKESIMNSIERFVLRARELGSNVMIDFREQGLEGSLISSTIKKKMATNGVKYYFLGRLEEDEFKDIRNLNSLYKIADGYGLSSAFSTSEIELIKHVFNNKIRSVHVSETIKHWLRDDLEYVMKRYEPNLIIHGTYLSEEEIDIMRYRKASIVYCPRSNLWFSVGIPKVINGLKSGVNLLIGTDNGGVLDPDMWKEMETLLLISRVQDPLSDHSLQILKASTINAYKFLGIRGWIEEGNPIEAGLLVLEGDSTGILNSNNKYIGIIKRGNKIIYNLGAIQKII | not soluble |
| MGKSELSGRLNWQALAGLKASGAEQNLYNVFNAVFEGTKYVLYEKPKHLKNLYAQVVLPDDVIKEIFNPLIDLSTTQWGVSPAFAIENTETHKILFGEIKRQDGWVEGKDPSAGRGNAHERSCKLFTPGLLKAYRTIGGINDEEILPFWVVFEGDITRDPKRVREITFWYDHYQDNYFMWRPNESGEKLVQHFNEKLKKYLD | soluble |
| MSLDDSVFVGHLKDVTGATGFVGKLYGEGVNDALVWINAHGGIDGTRLDFESVDYAYEVPRAIALYKKWTSQNKMVALQGWGTGDTEALISFVAKDKIPVLSGSYSGHLTDPTGKNPKTQKPAPYNFFYGPSYSDACRALVQWAEGDWKAKGKEGKPKFIHAGDNHPYPNAPKEACADFATELGFEVLPPVVVSLKPGDFKAQCLTIKQSGANYVYVANLGPSVVSLVKSCKTVGTDAQYMANIWGGDSETQKTLGADGDGYVFVAANAFWGDDAPGLALVREIAGSETPRTHHYIRGVCSTFYMKEAMEWAKAHGGLTGESIRNAMYARKDWVPKGLEGVCIPSTWTPEDHRGMTKVFIYQMQNGSEIHKIAETDLPRRDDWLGYEGHHHHHH | not soluble |
| MDLMSFKEKEISKKDCLELFEDTENFFDVIKLADSIRKDIVGDTVTYVVNANINFTNVCSGTCKFCAFKAEHGDPNAFFLNPDEVAKKALEARKIGATEVCIQGGLLKEIDTYFQAEILKKVKKITEPYEEIVVHAFSPMEVKSAAENAGLSVNEALKILKENGLNSMPGTAAEILNDEIRSEICPTKLKTSEWIDVVTNAHKTGIKTTCTMMYGHIEENKHLAEHLSILRKIQKETGGFTEFVPLTFLHENAPLHHMERVKSGASGMLDLKTYAISRIFFKDYIKNIQTSWVKLGTKLSQVSLNCGANDIGGTLMEESISKAAGGSYGTFMSEEKLKDMILAVGRIPKQRNTAYEIIE | not soluble |
| GAMGDASRVRVSGQGLHEGHTFEPAEFIIDTRDAGYGGLSLSIEGPSKVDINTEDLEDGTCRVTYCPTEPGNYIINIKFADQHVPGSPFSVKVTGEGRVKESITRRRRAPSVANVGSHCDLSLKIPEISIQDMTAQVTSPSGKTHEAEIVEGENHTYCIRFVPAEMGTHTVSVKYKGQHVPGSPFQFTVGPLGEGGAHKVRAGGPGLERAEAGVPAEFSIWTREAGAGGLAIAVEGPSKAEISFEDRKDGSCGVAYVVQEPGDYEVSVKFNEEHIPDSPFVVPVASPS | soluble |
